# Data taken from article PMC10602865, “Cleavage kinetics of human mitochondrial RNase P and contribution of its non-nuclease subunits”.
# T1: SDR5C1 (MRPP2, HSD17B10) (Homo sapiens, UniProt Q99714 1-261)
# T1 sequence: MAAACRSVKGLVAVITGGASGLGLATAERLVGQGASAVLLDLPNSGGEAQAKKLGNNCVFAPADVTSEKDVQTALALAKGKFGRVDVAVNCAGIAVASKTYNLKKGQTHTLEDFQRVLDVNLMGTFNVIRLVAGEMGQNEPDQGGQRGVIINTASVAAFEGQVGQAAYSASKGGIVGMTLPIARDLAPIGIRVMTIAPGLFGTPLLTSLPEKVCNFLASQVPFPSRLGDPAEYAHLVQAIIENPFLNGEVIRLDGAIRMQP
# T2: TRMT10C (MRPP1);SDR5C1 (MRPP2, HSD17B10) (Homo sapiens;Homo sapiens, UniProt Q7L0Y3;Q99714 40-403;1-261, |)
# T2 sequence 1: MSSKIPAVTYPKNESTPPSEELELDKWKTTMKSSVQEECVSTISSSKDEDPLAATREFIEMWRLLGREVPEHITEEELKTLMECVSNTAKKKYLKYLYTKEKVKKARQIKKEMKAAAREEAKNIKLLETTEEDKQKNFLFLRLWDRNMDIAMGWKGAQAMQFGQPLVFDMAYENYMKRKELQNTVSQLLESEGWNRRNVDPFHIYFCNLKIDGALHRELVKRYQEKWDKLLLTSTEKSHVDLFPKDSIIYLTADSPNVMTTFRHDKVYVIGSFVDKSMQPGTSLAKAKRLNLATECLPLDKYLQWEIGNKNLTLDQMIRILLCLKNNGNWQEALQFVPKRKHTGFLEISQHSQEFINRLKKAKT
# T2 sequence 2: T1 sequence
# T3: TRMT10C (MRPP1) (Homo sapiens, UniProt Q7L0Y3 40-403)
# T3 sequence: T2 sequence 1
# T4: PRORP (MRPP3) (Homo sapiens, UniProt O15091 46-583)
# T4 sequence: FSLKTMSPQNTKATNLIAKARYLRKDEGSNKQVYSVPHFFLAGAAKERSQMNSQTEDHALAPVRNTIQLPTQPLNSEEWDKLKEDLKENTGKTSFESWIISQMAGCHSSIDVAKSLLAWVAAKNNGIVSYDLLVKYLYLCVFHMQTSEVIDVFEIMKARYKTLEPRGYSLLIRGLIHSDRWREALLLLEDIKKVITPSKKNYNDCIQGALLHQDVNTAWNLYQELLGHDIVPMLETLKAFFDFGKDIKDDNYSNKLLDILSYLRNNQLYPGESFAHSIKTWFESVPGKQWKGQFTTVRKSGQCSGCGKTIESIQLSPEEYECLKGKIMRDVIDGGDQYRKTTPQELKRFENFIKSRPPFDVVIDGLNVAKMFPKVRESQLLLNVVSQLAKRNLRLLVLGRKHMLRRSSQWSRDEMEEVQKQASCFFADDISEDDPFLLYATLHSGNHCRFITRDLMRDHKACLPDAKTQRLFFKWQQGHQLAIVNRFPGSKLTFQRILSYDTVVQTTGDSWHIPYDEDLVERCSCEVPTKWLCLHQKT
# B1: pre-tRNAVal, 3'-biotinylated (structured_RNA)
# RNA: UGCACUUGGACGAACCAGAGUGUAGCUUAACACAAAGCACCCAACUUACACUUAGGAGAUUUCAACUUAACUUGACCGCUCUGAGCUAAACCUAGCCCCAAACCCACUCCACCUUA
# modifications: splint ligation of synthetic RNA (15 nt 5' flank + tRNA nt 1-8) to transcript of 1610-1702; 3' pCp-biotin adds a C
# B2: pre-tRNALys, 3'-biotinylated (structured_RNA)
# RNA: ACCCCCUCUAGAGCCCACUGUAAAGCUAACUUAGCAUUAACCUUUUAAGUUAAAGAUUAAGAGAACCAACACCUCUUUACAGUGAAAUGCCCCAAC
# modifications: splint ligation of synthetic RNA (15 nt 5' flank + tRNA nt 1-8) to transcript of 8303-8375; 3' pCp-biotin adds a C
# What was measured:
# SDR5C1 (MRPP2, HSD17B10) [1] = target: T1, SDR5C1 (MRPP2, HSD17B10); assay: BLI; no Mg2+; up to 1 uM SDR5C1; BLI (BLItz, streptavidin sensors): 50 mM Tris-Cl pH 8, 20 mM NaCl, 2 mM DTT, 20 ug/ml BSA, 0.5 U/ul RNase inhibitor, 0.05% Tween-20, with (Lys) or without 4.5 mM MgCl2, 21 C; settings: protein: recombinant; tags: N-terminal His6; chain copies: 4; label: 3' biotin (pCp-biotin); tRNA cloverleaf
# [2] = target: T2, TRMT10C (MRPP1);SDR5C1 (MRPP2, HSD17B10); assay: BLI; no Mg2+; BLI (BLItz, streptavidin sensors): 50 mM Tris-Cl pH 8, 20 mM NaCl, 2 mM DTT, 20 ug/ml BSA, 0.5 U/ul RNase inhibitor, 0.05% Tween-20, with (Lys) or without 4.5 mM MgCl2, 21 C; settings: protein: recombinant;recombinant; tags: C-terminal myc-His6;N-terminal His6; copies: 1;4; label: 3' biotin (pCp-biotin); tRNA cloverleaf
# TRMT10C (MRPP1) [3] = target: T3, TRMT10C (MRPP1); assay: as above; settings: protein: recombinant; tags: C-terminal myc-His6; chain copies: 2; label: 3' biotin (pCp-biotin); tRNA cloverleaf
# PRORP (MRPP3) [4] = target: T4, PRORP (MRPP3); assay: as above; settings: protein: recombinant; tags: C-terminal His6; label: 3' biotin (pCp-biotin); tRNA cloverleaf
# SDR5C1 (MRPP2, HSD17B10) [5] = target: T1, SDR5C1 (MRPP2, HSD17B10); assay: BLI; 4.5 mM Mg2+; up to 1 uM SDR5C1; BLI (BLItz, streptavidin sensors): 50 mM Tris-Cl pH 8, 20 mM NaCl, 2 mM DTT, 20 ug/ml BSA, 0.5 U/ul RNase inhibitor, 0.05% Tween-20, with (Lys) or without 4.5 mM MgCl2, 21 C; settings: protein: recombinant; tags: N-terminal His6; chain copies: 4; label: 3' biotin (pCp-biotin); tRNA cloverleaf
# [6] = target: T2, TRMT10C (MRPP1);SDR5C1 (MRPP2, HSD17B10); assay: BLI; 4.5 mM Mg2+; BLI (BLItz, streptavidin sensors): 50 mM Tris-Cl pH 8, 20 mM NaCl, 2 mM DTT, 20 ug/ml BSA, 0.5 U/ul RNase inhibitor, 0.05% Tween-20, with (Lys) or without 4.5 mM MgCl2, 21 C; settings: protein: recombinant;recombinant; tags: C-terminal myc-His6;N-terminal His6; copies: 1;4; label: 3' biotin (pCp-biotin); tRNA cloverleaf
# TRMT10C (MRPP1) [7] = target: T3, TRMT10C (MRPP1); assay: as above; settings: protein: recombinant; tags: C-terminal myc-His6; chain copies: 2; label: 3' biotin (pCp-biotin); tRNA cloverleaf
# PRORP (MRPP3) [8] = target: T4, PRORP (MRPP3); assay: as above; settings: protein: recombinant; tags: C-terminal His6; label: 3' biotin (pCp-biotin); tRNA cloverleaf
Binder,"binding result (SDR5C1 (MRPP2, HSD17B10) [1])",Kd [2] [nM],Kd (TRMT10C (MRPP1) [3]) [nM],Kd (PRORP (MRPP3) [4]) [nM],"binding result (SDR5C1 (MRPP2, HSD17B10) [5])",Kd [6] [nM],Kd (TRMT10C (MRPP1) [7]) [nM],Kd (PRORP (MRPP3) [8]) [nM]
B1,no binding,13,20,18,–,–,–,–
B2,–,–,–,–,no binding,4,30,26
